Measured values as given in article PMC11996676.

Biological target: aPKCι kinase domain (residues 248–596), fully primed (human), P41743
Test: fluorescence polarisation; fluorescence anisotropy; Llgl1 P-site peptide and aPKCι kinase domain (2P, pT412 and pT564); apparent Kd

Chain of aPKCι kinase domain (residues 248–596), fully primed (human), P41743 (P41743 248-596): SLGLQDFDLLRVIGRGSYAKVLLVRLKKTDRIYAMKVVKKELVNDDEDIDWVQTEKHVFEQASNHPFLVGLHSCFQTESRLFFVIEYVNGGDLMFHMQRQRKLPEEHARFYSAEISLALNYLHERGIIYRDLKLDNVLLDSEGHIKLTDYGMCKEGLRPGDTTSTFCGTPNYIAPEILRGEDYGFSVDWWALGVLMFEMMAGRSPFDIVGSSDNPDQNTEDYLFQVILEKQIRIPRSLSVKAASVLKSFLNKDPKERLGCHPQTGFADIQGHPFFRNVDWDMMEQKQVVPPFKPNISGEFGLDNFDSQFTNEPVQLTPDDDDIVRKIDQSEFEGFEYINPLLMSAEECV

Kd: 48 nM
Binder: LAMEGPLSRVKSLKKSLRQSFRRIRKSRV (modifications not checked) [Llgl1 P-site peptide]
